The text below walks through data of paper doi:10.1101/134072.

“And” between values parts separate entries of the source, which are not always exact repeats. Equal entries are not always repeated.

In general, stoichiometry N refers to the number of molecules, sites or subunits per partner or assembly.

Assay [1] addresses T1, TDP-43 N-terminal domain (TDP-43^NTD), residues 1-80, no tags, Q13148.
T1 chain: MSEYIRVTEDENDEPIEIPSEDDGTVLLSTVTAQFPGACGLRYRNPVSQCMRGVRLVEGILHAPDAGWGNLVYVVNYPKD
Put plainly: SEC. The conditions noted are these: remark: other sources report otherwise.

Assay [2] concerns the target T1, TDP-43 N-terminal domain (TDP-43^NTD), …. Nature of the assay: AUC. The conditions noted are these: remark: other sources report otherwise.

B1: TDP-43 N-terminal domain (TDP-43^NTD), residues 1-80, no tags, Q13148 1-80 (domain or fragment)
chain: T1 chain
With B1, in assay [1], the stoichiometry N is 2 and 4. For the same molecule, in assay [2], the percent dimer at 2-5 μM stood at 30%; the percent tetramer at 20 μM came out at 10%; the stoichiometry N was 2 and 4.
